Substitutions are numbered along the chain they refer to.
Tests used:
[1] = biological target: T1, conarachin (undenatured) (Arachis hypogaea) (UniProt P43238); test: SPR; details: all T replaced by 5-tryptaminocarbonyl-dU (TrpdU); printed as P_M_NES01 in table; same SPR buffer
T1 sequence: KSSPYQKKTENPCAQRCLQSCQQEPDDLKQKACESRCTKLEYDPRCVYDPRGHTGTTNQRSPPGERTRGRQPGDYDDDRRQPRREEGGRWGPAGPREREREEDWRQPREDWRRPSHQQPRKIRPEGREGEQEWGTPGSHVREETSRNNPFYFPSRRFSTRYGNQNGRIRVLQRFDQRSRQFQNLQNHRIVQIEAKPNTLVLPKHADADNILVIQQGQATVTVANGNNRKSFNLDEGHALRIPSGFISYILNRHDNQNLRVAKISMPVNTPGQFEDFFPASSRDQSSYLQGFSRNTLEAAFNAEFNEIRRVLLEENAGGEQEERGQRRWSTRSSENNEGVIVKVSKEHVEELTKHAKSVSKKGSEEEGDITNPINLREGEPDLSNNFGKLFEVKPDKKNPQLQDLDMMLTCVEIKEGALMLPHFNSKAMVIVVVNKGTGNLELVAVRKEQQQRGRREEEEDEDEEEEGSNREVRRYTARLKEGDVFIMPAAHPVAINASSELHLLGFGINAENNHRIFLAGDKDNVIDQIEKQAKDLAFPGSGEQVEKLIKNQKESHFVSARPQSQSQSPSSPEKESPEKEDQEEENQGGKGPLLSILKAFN

[2] = biological target: T2, beta-conglycinin (undenatured) (Glycine max, UniProt P0DO16;P11827;P25974 P0DO16:63-605,P11827:63-621,P25974:24-439); test: SPR; little binding, 18.75-300 nM; details: tags: Sigma C5868-5GM
Description: (§1) First, as a sensor chip designed specifically for the ProteON, a streptavidin-immobilized chip (trade name: ProteOn NLC Sensor Chip, BioRad) was set in the ProteON XPR36. Biotinylated poly(dT) at 5 μmol/L was injected to a flow cell of the sensor chip using ultrapure water (DDW), and the binding was allowed to proceed until the signal intensity (RU: Resonance Unit) reached about 900 RU. The biotinylated poly(dT) was prepared by biotinylating the 5′ end of 24-mer deoxythymidine. Then, the poly(dA)-added aptamer at 1 μmol/L was injected to the flow cell of the chip using an SPR buffer at a flow rate of 25 μL/min for 80 seconds, and the binding was allowed to proceed until the signal intensity reached about 800 RU. […] Subsequently, the sample was injected using the SPR buffer at a flow rate of 50 μL/min for 120 seconds, followed by washing performed by flowing the SPR buffer under the same conditions. Signal intensity measurement was performed concurrently with the injection of the sample and the washing with the SPR buffer.
(§2) The concentrations of the β-conglycinin were set to 18.75, 37.5, 75, 150, and 300 nmol/L, and the protein concentrations in the soybean samples were set to 1, 3, 10, 30, and 100 ppm. The SPR analysis was performed in the same manner as in Example 1, except that these samples were used. Then, from the results of the above-described SPR analysis, the relative binding value was determined regarding the proteins in each peanut sample bound to the aptamer immobilized on the chip. The relative binding value was calculated as the ratio of the protein binding measured value to the aptamer immobilization measured value (the protein binding measured value/the aptamer immobilization measured value).

[3] = biological target: beta-conglycinin (heat-denatured, boiled 10 min) (Glycine max, UniProt P0DO16;P11827;P25974 P0DO16:63-605,P11827:63-621,P25974:24-439); test: SPR; little binding, 18.75-300 nM; details: tags: Sigma C5868-5GM
Description: as §1, with “Biotinylated” for “First, as a sensor chip designed specifically for the ProteON, a streptavidin-immobilized chip (trade name: ProteOn NLC Sensor Chip, BioRad) was set in the ProteON XPR36. Biotinylated”
As soybean allergen samples, undenatured β-conglycinin, heat-denatured β-conglycinin, undenatured soybean proteins, and heat-denatured soybean proteins were provided. A commercially available product (Sigma, trade name β-conglycinin from Glycine max (soybean), C5868-5GM) was used as the undenatured β-conglycinin. The heat-denatured β-conglycinin was prepared by boiling the undenatured β-conglycinin for 10 minutes and then collecting a supernatant fraction. As the undenatured soybean proteins and the heat-denatured soybean proteins, the undenatured soybean sample and the heat-denatured soybean sample in Example 1 were used.
as §2, with “chip.” for “chip. The relative binding value was calculated as the ratio of the protein binding measured value to the aptamer immobilization measured value (the protein binding measured value/the aptamer immobilization measured value).”

[4] = biological target: T3, Ara h1 (heat-denatured, purified from parboiled peanut) (Arachis hypogaea, UniProt P43238 P43238:26-626); test: SPR; 40 mM HEPES pH 7.5, 125 mM NaCl, 5 mM KCl, 1 mM MgCl2, 0.05% Tween 20; details: tags: INDOOR biotechnologies NA-AH1-1
T3 sequence: T1 sequence
Description: as §1
Samples were prepared by adjusting commercially available peanut allergen Ara h1 (INDOOR biotechnologies, #NA-AH1-1, Blanched peanut, crushed [Runner cultivar]) to 50 nmol/L, 25 nmol/L, 12.5 nmol/L, and 6.25 nmol/L. The Ara h1, which is purified from parboiled peanuts, is a heat-denatured protein. The SPR analysis was carried out in the same manner as in Example 1, and the kinetic parameter was calculated from the results of the analysis.

[5] = biological target: T2, beta-conglycinin (undenatured); test: SPR; little binding; details: tags: Sigma C5868-5GM
Description: as §1
(§3) Except that the following eight types of aptamers were used as pyrimidine-rich aptamers, the binding forces to Ara h1, heat-denatured peanut proteins, undenatured β-conglycinin, and heat-denatured soybean proteins were examined by SPR in the same manner as in the above-described examples.

[6] = biological target: T3, Ara h1 (heat-denatured, purified from …); test: SPR; very high binding; details: tags: INDOOR biotechnologies NA-AH1-1
Description: as §1, §3

conarachin (undenatured) [7] = biological target: T4, conarachin (undenatured) (Arachis hypogaea, UniProt P43238 P43238:26-626); test: SPR; same SPR buffer; details: tags: COSMO BIO CSB-CSB-NP003601PL
T4 sequence: T1 sequence
Description: (§4) First, as a sensor chip designed specifically for the ProteON, a streptavidin-immobilized chip (trade name: ProteOn NLC Sensor Chip, BioRad) was set in the ProteON XPR36. Biotinylated poly(dT) at 5 μmol/L was injected to a flow cell of the sensor chip using ultrapure water (DDW), and the binding was allowed to proceed until the signal intensity (RU: Resonance Unit) reached about 900 RU. The biotinylated poly(dT) was prepared by biotinylating the 5′ end of 24-mer deoxythymidine. Then, the poly(dA)-added aptamer at 1 μmol/L was injected to the flow cell of the chip using an SPR buffer at a flow rate of 25 μL/min for 80 seconds, and the binding was allowed to proceed until the signal intensity reached about 800 RU. […]
(§5) Samples were prepared by adjusting commercially available peanut allergen conarachin (COSMO BIO, CSB-CSB-NP003601PL, Arachis hypogaea seed, Native) to 50 nmol/L, 25 nmol/L, 12.5 nmol/L, 6.25 nmol/L, and 3.125 nmol/L. The conarachin is a undenatured protein, and the conarachin generally accounts for about 17% of the total amount of peanut proteins in a peanut. The SPR analysis was carried out in the same manner as in Example 1, and the kinetic parameter was calculated from the results of the analysis.

[8] = biological target: T5, conarachin (heat-denatured, boiled 10 min) (Arachis hypogaea, UniProt P43238 P43238:26-626); test: SPR; 3.125-50 nM; superior to undenatured; details: tags: COSMO BIO CSB-CSB-NP003601PL
T5 sequence: T1 sequence
Description: as §4
(§6) Samples were prepared by adjusting the undenatured conarachin to predetermined concentrations (10, 30, 100, 300, and 1000 nmol/L) and the heat-denatured conarachin to predetermined concentrations (3.125, 6.25, 12.5, 25, and 50 nmol/L). […] From the results of the above-described SPR analysis, the relative binding value was determined regarding the conarachin bound to the aptamer immobilized on the chip. The relative binding value was calculated as the ratio of the protein binding measured value to the aptamer immobilization measured value (the protein binding measured value/the aptamer immobilization measured value).

conarachin (undenatured) [9] = biological target: T4, conarachin (undenatured); test: SPR; 10-1000 nM conarachin; details: tags: COSMO BIO CSB-CSB-NP003601PL
Description: as §4, §6

[10] = biological target: T3, Ara h1 (heat-denatured, purified from …); test: SPR; 6.25-100 nM Ara h1; details: tags: INDOOR biotechnologies NA-AH1-1
Description: as §4
as §6, with “Ara h1 used in Example 2” for “undenatured conarachin”, “(6.25,” for “(10, 30, 100, 300, and 1000 nmol/L) and the heat-denatured conarachin to predetermined concentrations (3.125, 6.25,”, “25, 50,” for “25,”, “100” for “50”, “Ara h1” for “conarachin”

conarachin (undenatured) [11] = biological target: T4, conarachin (undenatured); test: SPR; 40 mM HEPES pH 7.5, 125 mM NaCl, 5 mM KCl, 1 mM MgCl2, 0.05% Tween 20; details: tags: COSMO BIO CSB-CSB-NP003601PL
Description: as §4, §5

Sequence of beta-conglycinin (heat-denatured, boiled 10 min) (P0DO16 63-605, chain 1 of 3): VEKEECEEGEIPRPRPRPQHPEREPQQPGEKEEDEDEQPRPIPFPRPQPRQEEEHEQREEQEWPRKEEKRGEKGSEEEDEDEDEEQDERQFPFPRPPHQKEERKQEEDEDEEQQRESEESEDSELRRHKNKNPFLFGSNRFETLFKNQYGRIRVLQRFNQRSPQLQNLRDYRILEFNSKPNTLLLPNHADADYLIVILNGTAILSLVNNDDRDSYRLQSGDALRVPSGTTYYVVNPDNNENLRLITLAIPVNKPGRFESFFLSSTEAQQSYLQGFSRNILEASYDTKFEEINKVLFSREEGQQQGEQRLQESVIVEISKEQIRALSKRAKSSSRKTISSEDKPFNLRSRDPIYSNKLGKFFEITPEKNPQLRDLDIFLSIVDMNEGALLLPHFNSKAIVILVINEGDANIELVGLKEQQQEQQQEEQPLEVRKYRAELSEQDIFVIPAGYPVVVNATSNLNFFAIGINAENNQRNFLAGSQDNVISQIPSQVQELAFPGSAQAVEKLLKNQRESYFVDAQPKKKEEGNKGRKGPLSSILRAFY
Sequence of beta-conglycinin (heat-denatured, boiled 10 min) (P11827 63-621, chain 2 of 3): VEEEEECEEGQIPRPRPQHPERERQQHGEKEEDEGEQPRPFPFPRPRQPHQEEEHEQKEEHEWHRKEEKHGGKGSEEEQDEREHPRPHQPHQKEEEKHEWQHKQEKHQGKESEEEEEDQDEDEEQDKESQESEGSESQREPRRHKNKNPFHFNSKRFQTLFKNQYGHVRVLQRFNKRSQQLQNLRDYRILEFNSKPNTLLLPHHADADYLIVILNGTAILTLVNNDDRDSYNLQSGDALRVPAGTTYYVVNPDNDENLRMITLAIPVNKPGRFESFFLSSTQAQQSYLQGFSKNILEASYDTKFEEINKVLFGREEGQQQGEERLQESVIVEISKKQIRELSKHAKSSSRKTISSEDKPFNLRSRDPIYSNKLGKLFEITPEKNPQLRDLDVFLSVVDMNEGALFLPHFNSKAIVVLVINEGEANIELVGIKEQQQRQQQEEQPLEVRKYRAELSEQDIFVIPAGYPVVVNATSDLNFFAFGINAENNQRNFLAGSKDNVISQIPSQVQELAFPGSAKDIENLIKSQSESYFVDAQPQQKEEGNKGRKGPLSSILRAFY
Sequence of beta-conglycinin (heat-denatured, boiled 10 min) (P25974 24-439, chain 3 of 3): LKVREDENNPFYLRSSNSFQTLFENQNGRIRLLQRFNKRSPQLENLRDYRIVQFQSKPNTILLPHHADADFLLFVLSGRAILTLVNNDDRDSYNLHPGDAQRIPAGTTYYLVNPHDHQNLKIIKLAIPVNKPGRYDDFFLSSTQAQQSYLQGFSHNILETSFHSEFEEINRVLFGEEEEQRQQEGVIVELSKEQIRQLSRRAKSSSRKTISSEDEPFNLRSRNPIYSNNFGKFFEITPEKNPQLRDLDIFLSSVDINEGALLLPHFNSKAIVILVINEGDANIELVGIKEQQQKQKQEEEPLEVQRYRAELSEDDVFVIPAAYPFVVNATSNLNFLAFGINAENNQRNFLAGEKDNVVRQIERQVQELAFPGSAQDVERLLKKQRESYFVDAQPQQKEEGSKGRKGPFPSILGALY
T2 sequence (P0DO16 63-605, chain 1 of 3): as the sequence (P0DO16 63-605, chain 1 of 3) above
T2 sequence (P11827 63-621, chain 2 of 3): as the sequence (P11827 63-621, chain 2 of 3) above
T2 sequence (P25974 24-439, chain 3 of 3): as the sequence (P25974 24-439, chain 3 of 3) above

“GGATTCCGTGCCGTGCTAAAGGCCTCCCCGTTTATAGGCAGGTATCCGGCAGACTACTGGGCTTGCGACAAATGAAAAAAAAAAAAAAAAAAAAAAAA [P_NES_M01 (CONA170TEDAR2R8m1)]” gave a Kd [1] of 0.0388 nM.

B1: P_NES04 (CONA171NNHR2R8m2s24) (ssDNA)
DNA: GTTTTCTAGGCCAATCTGATCAACAAAAAAAAAAAAAAAAAAAAAAAA
In the case of B1, the binding result [2] is reported as “no binding”, the binding result [3] is reported as “no binding” and the Kd [4] is reported as 0.141 nM.

B2: CT25_C11 (ssDNA)
DNA: CTCTCTCTCCCCCCCCCCCTCTCTCAAAAAAAAAAAAAAAAAAAAAAAA
B2: no binding [5]; binds [6].

B3: CT25_C7 (ssDNA)
DNA: B2 DNA with C10T, C18T
B3: no binding [5]; binds [6].

B4: CT25_C3 (Pyrimidine rich) (ssDNA)
DNA: B2 DNA with C10T, C12T, C16T, C18T
With B4 the binding result [2] was “no binding”, the binding result [3] was “no binding” and the Kd (conarachin (undenatured) [7]) was 0.28 nM.

B5: CT25_C0 (ssDNA)
DNA: B2 DNA with C10T, C12T, C14T, C16T, C18T
B5: no binding [5]; binds [6].

B6: P_NES03 (CONA161R2R8m1s32) (ssDNA)
DNA: GTTCGTGGTGTGTTGTGTGTGATTCCAGGGACAAAAAAAAAAAAAAAAAAAAAAAA
With B6 the binding result [2] was “no binding”, the binding result [3] was “no binding” and the Kd [4] was 0.173 nM.

B7: P_NES02 (CONA161R8m1s31) (ssDNA)
DNA: GAATCCGCGGGGTAGCGGTGGCGAGCGATTCAAAAAAAAAAAAAAAAAAAAAAAA
B7: no binding [2]; no binding [3]; binds [8]. B7: binds (conarachin (undenatured) [9]); binds [10].

B8: P_NES01 (NAH1128R7Am2s19G) (ssDNA)
DNA: CCCGCCTGTATTCCTGTCCAAAAAAAAAAAAAAAAAAAAAAAA
B8 was tested, and the binding result [2] was “no binding”, the binding result [3] was “no binding” and the Kd (conarachin (undenatured) [11]) was 0.259 nM.

B9: PolydT20 (ssDNA)
DNA: TTTTTTTTTTTTTTTTTTTTAAAAAAAAAAAAAAAAAAAAAAAA
With B9 the binding result [2] was “no binding”, the binding result [3] was “no binding” and the Kd (conarachin (undenatured) [7]) was 0.263 nM. It also gave a Kd [4] of 0.19 nM.

B10: CA25_C11 (ssDNA)
DNA: CACACACACCCCCCCCCCCACACACAAAAAAAAAAAAAAAAAAAAAAAAA
B10: no binding [5]; binds [6].

B11: CA25_C3 (ssDNA)
DNA: B10 DNA with C10A, C12A, C16A, C18A
B11: no binding [5]; binds [6].

B12: CA25_C7 (ssDNA)
DNA: B10 DNA with C10A, C18A
B12: no binding [5]; binds [6].

B13: CA25_C0 (ssDNA)
DNA: B10 DNA with C10A, C12A, C14A, C16A, C18A
B13: no binding [5]; binds [6].

From patent publication US20160298117, “PEANUT-BINDING NUCLEIC ACID MOLECULE AND USE THEREOF” (NEC Solution Innovators, Ltd., published 2016)
